From PMC4259358, “Functional Characterization of Nuclear Localization and Export Signals in Hepatitis C Virus Proteins and Their Role in the Membranous Web” (PLoS ONE, 2014)

B1: recombinant full-length HCV core protein (natural protein)
chain: STNPKPQRKTKRNTNRRPEDVKFPGGGQIVGGVYLLPRRGPRLGVRTTRKTSERSQPRGRRQPIPKDRRSTGKAWGKPGRPWPLYGNEGLGWAGWLLSPRGSRPSWGPTDPRHRSRNVGKVIDTLTCGFADLMGYIPVVGAPLSGAARAVAHGVRVLEDGVNYATGNLPGFPFSIFLLALLSCITVPVSA
B2: Core NLS 2 synthetic peptide (fused to penetratin) (peptide)
peptide: PRRGPRLGVRRQIKIWFQNRRMKWKK
notes: source: synthetic peptide (GL Biochem, HPLC >85%)
B3: Core NES 2 synthetic peptide (fused to penetratin) (peptide)
peptide: LPGCSFSIFLLALLSCITVPVSARQIKIWFQNRRMKWKK
notes: as for B2
B4: NS2 NES synthetic peptide (fused to penetratin) (peptide)
peptide: LILLTLSPHYKLFLARLIWWLQYFITRQIKIWFQNRRMKWKK
notes: as for B2
B5: HIV-1 Rev NES synthetic peptide (fused to penetratin) (peptide)
peptide: LQLPPLERLTLRQIKIWFQNRRMKWKK
notes: as for B2
B6: Core NLS 1 synthetic peptide (fused to penetratin) (peptide)
peptide: PKPQRKTKRNTNRRPRQIKIWFQNRRMKWKK
notes: as for B2
B7: Core NES 1 synthetic peptide (fused to penetratin) (peptide)
peptide: KVIDTLTCGFADLMGRQIKIWFQNRRMKWKK
notes: as for B2
B8: Core NLS 3 synthetic peptide (fused to penetratin) (peptide)
peptide: PRGRRQPIPKDRRSTGKAWGKPRQIKIWFQNRRMKWKK
notes: as for B2
B9: NS2 NLS synthetic peptide (fused to penetratin) (peptide)
peptide: PIIFSPMEKKVIVWGRQIKIWFQNRRMKWKK
notes: as for B2

Experiments:
Settings in all cases: both partners purified
[1] = molecular target: T1, recombinant IPOA5 (importin α5/kap α1) (UniProt P52294 1-538); experiment: ELISA; plates coated with recombinant HCV protein (10 µg/ml, carbonate buffer pH 9.6); recombinant NTF added, 2 h, room temperature; anti-NTF antibodies; apparent Kd
T1 sequence (P52294 whole entry): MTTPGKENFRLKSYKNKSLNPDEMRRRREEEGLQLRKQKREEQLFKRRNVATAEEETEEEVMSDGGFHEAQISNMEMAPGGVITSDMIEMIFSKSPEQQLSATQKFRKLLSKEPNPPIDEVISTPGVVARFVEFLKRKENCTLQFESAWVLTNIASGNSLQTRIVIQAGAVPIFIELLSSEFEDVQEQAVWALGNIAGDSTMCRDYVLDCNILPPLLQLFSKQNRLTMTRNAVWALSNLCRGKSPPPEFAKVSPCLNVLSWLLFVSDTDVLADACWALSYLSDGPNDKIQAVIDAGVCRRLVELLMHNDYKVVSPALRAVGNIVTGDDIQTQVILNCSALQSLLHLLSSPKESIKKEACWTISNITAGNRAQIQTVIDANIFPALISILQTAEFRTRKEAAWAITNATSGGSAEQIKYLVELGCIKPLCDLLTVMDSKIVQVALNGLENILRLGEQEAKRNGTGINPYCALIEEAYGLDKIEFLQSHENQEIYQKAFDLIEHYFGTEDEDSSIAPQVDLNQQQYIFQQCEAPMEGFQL

[2] = molecular target: T2, recombinant IPO5 (importin β3/kap β3) (UniProt O00410-1 1-1097); experiment: as above
T2 sequence (looked up): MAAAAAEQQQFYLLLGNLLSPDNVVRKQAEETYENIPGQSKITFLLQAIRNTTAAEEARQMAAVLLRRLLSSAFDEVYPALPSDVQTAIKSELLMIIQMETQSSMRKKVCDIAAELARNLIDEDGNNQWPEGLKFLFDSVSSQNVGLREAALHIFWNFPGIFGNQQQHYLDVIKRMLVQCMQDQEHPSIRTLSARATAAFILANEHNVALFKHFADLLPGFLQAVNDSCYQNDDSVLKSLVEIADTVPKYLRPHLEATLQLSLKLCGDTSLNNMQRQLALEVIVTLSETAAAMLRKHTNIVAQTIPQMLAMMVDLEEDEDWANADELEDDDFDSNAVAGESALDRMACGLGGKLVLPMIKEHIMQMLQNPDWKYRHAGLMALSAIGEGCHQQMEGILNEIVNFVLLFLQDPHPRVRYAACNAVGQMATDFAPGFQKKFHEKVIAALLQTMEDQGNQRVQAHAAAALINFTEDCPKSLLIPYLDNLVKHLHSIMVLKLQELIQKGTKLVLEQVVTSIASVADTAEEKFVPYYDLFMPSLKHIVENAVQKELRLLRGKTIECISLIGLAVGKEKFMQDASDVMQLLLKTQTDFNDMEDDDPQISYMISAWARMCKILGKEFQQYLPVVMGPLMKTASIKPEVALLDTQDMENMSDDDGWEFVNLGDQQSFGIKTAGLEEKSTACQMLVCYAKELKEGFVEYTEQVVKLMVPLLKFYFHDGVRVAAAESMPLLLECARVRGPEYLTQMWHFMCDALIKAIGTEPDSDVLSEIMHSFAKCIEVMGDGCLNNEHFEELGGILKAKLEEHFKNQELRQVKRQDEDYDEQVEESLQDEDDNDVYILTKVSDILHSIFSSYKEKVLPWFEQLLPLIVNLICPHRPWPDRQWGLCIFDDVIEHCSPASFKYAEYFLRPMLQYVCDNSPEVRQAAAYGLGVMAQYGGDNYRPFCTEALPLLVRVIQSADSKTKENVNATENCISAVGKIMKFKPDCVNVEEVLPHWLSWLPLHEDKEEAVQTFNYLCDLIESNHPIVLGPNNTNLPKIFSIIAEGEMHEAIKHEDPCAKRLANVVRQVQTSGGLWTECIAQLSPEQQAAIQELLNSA

[3] = molecular target: T3, recombinant XPO1 (exportin 1/CRM1) (UniProt O14980 1-1071); experiment: as above
T3 sequence (O14980 whole entry): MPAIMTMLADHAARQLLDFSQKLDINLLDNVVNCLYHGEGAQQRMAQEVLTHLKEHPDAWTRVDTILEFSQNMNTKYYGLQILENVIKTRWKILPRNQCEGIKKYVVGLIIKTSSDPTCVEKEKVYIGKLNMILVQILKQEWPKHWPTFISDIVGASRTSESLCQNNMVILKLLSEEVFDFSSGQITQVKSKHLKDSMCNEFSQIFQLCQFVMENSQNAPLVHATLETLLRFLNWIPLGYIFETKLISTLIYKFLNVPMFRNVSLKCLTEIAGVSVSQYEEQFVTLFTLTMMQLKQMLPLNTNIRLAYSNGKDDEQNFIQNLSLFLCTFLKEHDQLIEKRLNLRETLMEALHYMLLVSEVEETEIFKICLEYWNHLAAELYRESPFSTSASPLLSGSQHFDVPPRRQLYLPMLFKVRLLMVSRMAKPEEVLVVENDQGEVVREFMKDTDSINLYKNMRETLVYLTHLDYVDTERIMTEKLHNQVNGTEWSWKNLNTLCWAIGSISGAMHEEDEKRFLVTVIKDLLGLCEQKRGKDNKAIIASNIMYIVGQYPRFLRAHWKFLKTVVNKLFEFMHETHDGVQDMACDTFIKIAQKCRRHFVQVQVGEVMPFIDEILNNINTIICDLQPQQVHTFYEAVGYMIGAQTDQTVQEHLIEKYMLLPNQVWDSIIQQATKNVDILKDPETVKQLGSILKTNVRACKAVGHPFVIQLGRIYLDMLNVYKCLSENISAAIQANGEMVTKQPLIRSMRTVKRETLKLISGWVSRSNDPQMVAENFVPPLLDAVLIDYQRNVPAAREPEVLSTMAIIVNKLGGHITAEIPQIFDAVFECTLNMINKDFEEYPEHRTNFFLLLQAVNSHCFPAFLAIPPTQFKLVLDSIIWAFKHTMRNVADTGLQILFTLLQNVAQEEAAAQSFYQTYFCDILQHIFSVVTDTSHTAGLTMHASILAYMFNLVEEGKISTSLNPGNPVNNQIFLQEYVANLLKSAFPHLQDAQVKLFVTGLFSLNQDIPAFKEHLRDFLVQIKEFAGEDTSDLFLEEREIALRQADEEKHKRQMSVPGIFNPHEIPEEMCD

[4] = molecular target: T1, recombinant IPOA5 (importin α5/kap α1); experiment: ELISA; plates coated with synthetic peptide (10 µg/ml, carbonate buffer pH 9.6); increasing concentrations of recombinant NTF, 2 h, room temperature; anti-HIS detection; apparent Kd
[5] = molecular target: T2, recombinant IPO5 (importin β3/kap β3); experiment: as above
[6] = molecular target: T3, recombinant XPO1 (exportin 1/CRM1); experiment: as above
[7] = molecular target: T1, recombinant IPOA5 (importin α5/kap α1); experiment: as above; remark: listed apart in the source

Row | Binder | Kd [4] [nM] | Kd [5] [nM] | Kd [6] [nM] | other results
1 | B1 | – | – | – | Kd [1]: 36.8 ± 4.83 nM; Kd [2]: 56 ± 2.78 nM; Kd [3]: 23.1 ± 4.07 nM
2 | B2 | 24.9 ± 1.71 | 78.8 ± 6.42 | – | –
3 | B3 | – | – | 95.2 ± 26.6 | –
4 | B4 | – | – | 79.8 ± 25.6 | –
5 | B5 | – | – | 114 ± 71.5 | –
6 | B6 | 161 ± 31.8 | 34.8 ± 4.54 | – | –
7 | B7 | – | – | 66.7 ± 11.3 | –
8 | B8 | 17.5 ± 0.81 | 40.4 ± 7.06 | – | –
9 | B9 | 79.2 ± 3.89 | – | – | Kd [7]: ~34 nM
